Reference: IntAct's records for PubMed 18509061

B1: Histone deacetylase 7 (Mus musculus), Q8C2B3-1 (parent)
chain: MHSPGAGCPALQPDTPGSQPQPMDLRVGQRPTVEPPPEPALLTLQHPQRLHRHLFLAGLHQQQRSAEPMRLSMDPPMPELQGGQQEQELRQLLNKDKSKRSAVASSVVKQKLAEVILKKQQAALERTVHPSSPSIPYRTLEPLDTEGAARSVLSSFLPPVPSLPTEPPEHFPLRKTVSEPNLKLRYKPKKSLERRKNPLLRKESAPPSLRRRPAETLGDSSPSSSSTPASGCSSPNDSEHGPNPALGSEADGDRRTHSTLGPRGPVLGNPHAPLFLHHGLEPEAGGTLPSRLQPILLLDPSVSHAPLWTVPGLGPLPFHFAQPLLTTERLSGSGLHRPLNRTRSEPLPPSATASPLLAPLQPRQDRLKPHVQLIKPAISPPQRPAKPSEKPRLRQIPSAEDLETDGGGVGPMANDGLEHRESGRGPPEGRGSISLQQHQQVPPWEQQHLAGRLSQGSPGDSVLIPLAQVGHRPLSRTQSSPAAPVSLLSPEPTCQTQVLNSSETPATGLVYDSVMLKHQCSCGDNSKHPEHAGRIQSIWSRLQERGLRSQCECLRGRKASLEELQSVHSERHVLLYGTNPLSRLKLDNGKLTGLLAQRTFVMLPCGGVGVDTDTIWNELHSSNAARWAAGSVTDLAFKVASRELKNGFAVVRPPGHHADHSTAMGFCFFNSVAIACRQLQQHGKASKILIVDWDVHHGNGTQQTFYQDPSVLYISLHRHDDGNFFPGSGAVDEVGTGSGEGFNVNVAWAGGLDPPMGDPEYLAAFRIVVMPIAREFAPDLVLVSAGFDAAEGHPAPLGGYHVSAKCFGYMTQQLMNLAGGAVVLALEGGHDLTAICDASEACVAALLGNKVDPLSEESWKQKPNLSAIRSLEAVVRVHRKYWGCMQRLASCPDSWLPRVPGADAEVEAVTALASLSVGILAEDRPSERLVEEEEPMNL
partner: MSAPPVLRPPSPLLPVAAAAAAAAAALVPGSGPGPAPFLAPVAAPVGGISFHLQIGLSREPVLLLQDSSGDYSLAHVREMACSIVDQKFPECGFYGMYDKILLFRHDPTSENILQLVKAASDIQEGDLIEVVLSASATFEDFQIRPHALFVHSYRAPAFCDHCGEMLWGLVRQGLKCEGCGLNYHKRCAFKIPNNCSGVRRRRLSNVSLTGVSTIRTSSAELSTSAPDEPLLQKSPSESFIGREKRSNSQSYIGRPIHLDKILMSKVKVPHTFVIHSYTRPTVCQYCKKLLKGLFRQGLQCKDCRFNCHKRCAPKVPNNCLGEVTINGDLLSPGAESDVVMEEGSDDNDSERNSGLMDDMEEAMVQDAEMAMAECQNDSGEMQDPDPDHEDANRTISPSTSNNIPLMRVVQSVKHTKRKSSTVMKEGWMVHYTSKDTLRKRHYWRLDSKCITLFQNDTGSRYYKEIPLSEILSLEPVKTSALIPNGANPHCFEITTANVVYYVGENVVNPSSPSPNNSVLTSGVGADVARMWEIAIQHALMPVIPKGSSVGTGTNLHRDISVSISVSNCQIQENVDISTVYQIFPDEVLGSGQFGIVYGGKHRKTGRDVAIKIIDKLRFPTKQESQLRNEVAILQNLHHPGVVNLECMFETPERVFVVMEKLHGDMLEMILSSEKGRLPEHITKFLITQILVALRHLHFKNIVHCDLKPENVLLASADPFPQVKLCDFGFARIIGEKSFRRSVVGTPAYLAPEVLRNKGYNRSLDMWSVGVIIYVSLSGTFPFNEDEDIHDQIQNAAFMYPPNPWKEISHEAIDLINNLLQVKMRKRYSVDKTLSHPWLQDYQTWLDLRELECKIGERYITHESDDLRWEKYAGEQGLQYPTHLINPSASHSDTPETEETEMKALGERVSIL

Variants of: B1
Settings: with kpcd1_human PRKD1, Q15139

| Variant | effect of a mutation on the interaction |
| --- | --- |
| S178A;S344A;S479A | increasing interaction strength |
